Source: publication PMC8720280
Blank lines part the entries; values can stand above or below the substance they belong to.

Assays:
Assay in all cases: BLI
[1] = target: SGE:AAA (135-137) NS Mut rDR5
[2] = target: KYGQ:AAGA (45-48) Mut rDR5
Lexatumumab = conditions: Loading ID Biot-Lexa
Tiga = target: Tiga
KMTR2 = target: KMTR2
AMG655 = conditions: fit R^2 0.9925

- koff [1]: 0.000625 s⁻¹
- koff [2]: 0.000153 s⁻¹
Substance: Tigatuzumab

- Kd (Lexatumumab; fit R^2 0.8916): 0.266 nM
- kon (Lexatumumab; fit R^2 0.8916): 2.14e+06 M⁻¹ s⁻¹
Substance: WT DR5 recombinant protein (IgG4-Fc tagged extracellular domain of human DR5) (from UniProt O14763-1) C103_R104insA

- Kd (Lexatumumab; fit R^2 0.8774): 0.215 nM
- kon (Lexatumumab; fit R^2 0.8774): 1.5e+06 M⁻¹ s⁻¹
Substance: WT DR5 recombinant protein (IgG4-Fc tagged extracellular domain of human DR5) (from UniProt O14763-1) C103_R104insS

- kon (Tiga; fit R^2 0.9770): 9.34e+06 M⁻¹ s⁻¹
Substance: WT DR5 recombinant protein (IgG4-Fc tagged extracellular domain of human DR5) (from UniProt O14763-1) E98A; M99A

- koff (KMTR2; fit R^2 0.9806): 1e-07 s⁻¹
- kon (KMTR2; fit R^2 0.9806): 750000 M⁻¹ s⁻¹
- koff (Tiga; fit R^2 0.9860): 0.000153 s⁻¹
- kon (Tiga; fit R^2 0.9860): 1.72e+06 M⁻¹ s⁻¹
Substance: WT DR5 recombinant protein (IgG4-Fc tagged extracellular domain of human DR5) (from UniProt O14763-1) K45A; Y46A; Q48A

- koff (KMTR2; fit R^2 0.9964): 2.01e-05 s⁻¹
- kon (KMTR2; fit R^2 0.9964): 791000 M⁻¹ s⁻¹
- koff (AMG655): 6.82e-05 s⁻¹
- kon (AMG655): 539000 M⁻¹ s⁻¹
- koff (Tiga; fit R^2 0.9793): 0.000625 s⁻¹
- kon (Tiga; fit R^2 0.9793): 742000 M⁻¹ s⁻¹
Substance: WT DR5 recombinant protein (IgG4-Fc tagged extracellular domain of human DR5) (from UniProt O14763-1) S135A; G136A; E137A
